Like-named read-outs stand apart in the source and are kept apart here.
Key:
human CD19 antigen [1] = molecular target: T1, human CD19 antigen (human, UniProt P15391 20-291); assay: BIAcore (SPR), CD19 captured on anti-His chip, antibody injected at 5 concentrations
T1 sequence (looked up): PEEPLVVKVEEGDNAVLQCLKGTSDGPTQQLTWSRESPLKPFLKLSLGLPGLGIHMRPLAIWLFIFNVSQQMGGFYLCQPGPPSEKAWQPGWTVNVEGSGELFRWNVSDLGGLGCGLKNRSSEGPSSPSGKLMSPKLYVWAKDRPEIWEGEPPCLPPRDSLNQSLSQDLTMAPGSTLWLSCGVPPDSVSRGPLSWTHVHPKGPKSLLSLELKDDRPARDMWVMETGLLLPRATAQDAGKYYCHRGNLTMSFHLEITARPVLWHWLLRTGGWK

[2] = molecular target: T2, CD20 (stably transfected into K562 cells) (UniProt P11836 1-297, limits assumed); assay: cell-based or functional assay
T2 sequence (looked up): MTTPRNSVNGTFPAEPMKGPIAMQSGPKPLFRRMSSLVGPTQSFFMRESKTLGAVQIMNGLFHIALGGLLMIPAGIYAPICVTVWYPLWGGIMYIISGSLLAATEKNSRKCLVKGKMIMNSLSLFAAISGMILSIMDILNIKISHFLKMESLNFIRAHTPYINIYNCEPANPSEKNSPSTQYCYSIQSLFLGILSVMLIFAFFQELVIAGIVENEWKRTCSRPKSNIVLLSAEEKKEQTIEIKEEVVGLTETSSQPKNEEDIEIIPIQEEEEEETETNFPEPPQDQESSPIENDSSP

human CD3ε antigen [3] = molecular target: T3, human CD3ε antigen (human, UniProt P07766 23-126); assay: BIAcore (SPR), antigen immobilized on chip, antibody injected at 5 concentrations
T3 construct: Immobilized on the BIAcore chip; The construct (tag, limits) is not described
T3 sequence (P07766 23-126): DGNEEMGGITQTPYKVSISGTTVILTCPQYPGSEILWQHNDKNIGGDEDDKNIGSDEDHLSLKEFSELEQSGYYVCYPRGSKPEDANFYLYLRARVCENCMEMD

human CD19 antigen [4] = molecular target: T1, human CD19 antigen; assay: BIAcore (SPR), CD19 captured on anti-His chip, antibody injected at 5 concentrations; remark: listed apart in the source
human CD3ε antigen [5] = molecular target: T3, human CD3ε antigen; assay: BIAcore (SPR), antigen immobilized on chip, antibody injected at 5 concentrations; remark: listed apart in the source

B1: CD3XCD19XCD20 tri-specific antibody (antibody #1) (other)
chain 1: EIVLTQSPATLSVTPGERATLSCSASSSVSYMHWYQKKPGQAPRLLIYDTSKLASGIPARFSGSGSGTDFTLTISSLEPEDFAVYYCFQGSVYPFTFGCGTKLEIKRTVAAEVQLVESGGGLVQPGGSLRLSCAASGFTFSTYAMNWVRQAPGKGLEWVGRIRSKYNNYATYYADSVKGRFTISRDDSKNSLYLQMNSLRAEDTAVYYCVRHGNFGNSYVSWFAYWGQGTLVTVSS
chain 2: QAVVTQEPSLTVSPGGTVTLTCRSSTGAVTTSNYANWVQQKPGQAPRGLIGGTNKRAPWTPARFSGSLLGGKAALTLSGAQAEDEADYYCALWYSNLWVFGGGTKLTVLRTVAAQVQLQESGPGLVKPSQTLSLTCTVSGGSISTSGMGVGWIRDHPGKCLEWIGHIWWDDDKRYNPALKSRVTISVDTSKNQFSLKLSSVTAADTAVYYCARMELWSYYFDYWGQGTTLTVSSASEPKSSDKTHTCPPCPAPPVAGPSVFLFPPKPKDTLMISRTPEVTCVVVDVSQEDPEVKFNWYVDGVEVHNAKTKPREEQFNSTYRVVSVLTVLHQDWLNGKEYKCKVSNKGLPSSIEKTISKAKGQPREPQVYTLPPSRDELTKNQVSLWCLVKGFYPSDIAVEWESNGQPENNYKTTPPVLDSDGSFFLYSKLTVDKSRWQQGNVFSCSVMHEALHNHYTQKSLSLSP
heavy: QVQLVQSGAEVKKPGSSVKVSCKASGYAFSYSWINWVRQAPGQGLEWMGRIFPGDGDTDYNGKFKGRVTITADKSTSTAYMELSSLRSEDTAVYYCARNVFDGYWLVYWGQGTLVTVSSASTKGPSVFPLAPSSKSTSGGTAALGCLVKDYFPEPVTVSWNSGALTSGVHTFPAVLQSSGLYSLSSVVTVPSSSLGTQTYICNVNHKPSNTKVDKKVEPKSCDKTHTCPPCPAPPVAGPSVFLFPPKPKDTLMISRTPEVTCVVVDVSQEDPEVKFNWYVDGVEVHNAKTKPREEQFNSTYRVVSVLTVLHQDWLNGKEYKCKVSNKGLPSSIEKTISKAKGQPREPQVYTLPPSRDELTKNQVSLSCAVKGFYPSDIAVEWESNGQPENNYKTTPPVLDSDGSFFLVSKLTVDKSRWQQGNVFSCSVMHEALHNRFTQKSLSLSP
light: DIVMTQTPLSLPVTPGEPASISCRSSKSLLHSNGITYLYWYLQKPGQSPQLLIYQMSNLVSGVPDRFSGSGSGTDFTLKISRVEAEDVGVYYCAQNLELPYTFGGGTKVEIKRTVAAPSVFIFPPSDEQLKSGTASVVCLLNNFYPREAKVQWKVDNALQSGNSQESVTEQDSKDSTYSLSSTLTLSKADYEKHKVYACEVTHQGLSSPVTKSFNRGEC
notes: Tri-specific antibody of four polypeptide chains
With B1 the Kd (human CD19 antigen [1]) was 1.32 nM, the koff (human CD19 antigen [1]) was 0.000273 s⁻¹ and the kon (human CD19 antigen [1]) was 207000 M⁻¹ s⁻¹. The “EC50 of killing of K562-CD20 target cells by PBMC effector cells (absorbance at OD490)” value [2] was 0.00122 nM, the Kd (human CD3ε antigen [3]) was 25 nM and the koff (human CD3ε antigen [3]) was 0.00835 s⁻¹. The kon (human CD3ε antigen [3]) was 334000 M⁻¹ s⁻¹.

B2: CD3XCD19 bispecific antibody (antibody A) (bispecific antibody)
chain 1: EIVLTQSPATLSVTPGERATLSCSASSSVSYMHWYQKKPGQAPRLLIYDTSKLASGIPARFSGSGSGTDFTLTISSLEPEDFAVYYCFQGSVYPFTFGCGTKLEIKRTVAAEVQLVESGGGLVQPGGSLRLSCAASGFTFNTYAMNWVRKAPGKGLEWVGRIRSKYNNYATYYADSVDKGRFTISRDDSKNSLYLQMNSLKTEDTAVYYCVRHGNFGNSYVSWFAYWGQGTLVTVSS
chain 2: EAVVTQEPSLTVSPGGTVTLTCRSSTGAVTTSNYANWVQDKPGQAPRGLIGGTNKRAPWTPARFSGSLLGGKAALTITGAQPEDEAEYYCALWYSNLWVFGGGTKLTVLRTVAAQVQLQESGPGLVKPSQTLSLTCTVSGGSISTSGMGVGWIRDHPGKCLEWIGHIWWDDDKRYNPALKSRVTISVDTSKNQFSLKLSSVTAADTAVYYCARMELWSYYFDYWGQGTTLTVSSASEPKSDKTHTCPPCPAPPVAGGPSVFLFPPKPKDTLMISRTPEVTCVVVDVSQEDPEVKFNWYVDGVEVHNAKTKPREEQFNSTYRVVSVLTVLHQDWLNGKEYKCKVSNKGLPSSIEKTISKAKGQPREPQVYTLPPCRDELTKNQVSLWCLVKGFYPSDIAVEWESNGQPENNYKTTPPVLDSDGSFFLYSKLTVDKSRWQQGNVFSCSVMHEALHNHYTQKSLSLSPGK
chain 3: DKTHTCPPCPAPPVAGGPSVFLFPPKPKDTLMISRTPEVTCVVVDVSQEDPEVKFNWYVDGVEVHNAKTKPREEQFNSTYRVVSVLTVLHQDWLNGKEYKCKVSNKGLPSSIEKTISKAKGQPREPQVCTLPPSRDELTKNQVSLSCAVKGFYPSDIAVEWESNGQPENNYKTTPPVLDSDGSFFLVSKLTVDKSRWQQGNVFSCSVMHEALHNRFTQKSLSLSPGK
notes: Three-polypeptide bispecific made in CHO3E7 cells; The description speaks of a disulfide bond between CD19 VL and VH, charge substitutions and a knob-in-hole Fc
In the case of B2, the Kd (human CD19 antigen [4]) is reported as 1.83 nM, the koff (human CD19 antigen [4]) is reported as 0.000669 s⁻¹ and the kon (human CD19 antigen [4]) is reported as 365000 M⁻¹ s⁻¹. It also gave a Kd (human CD3ε antigen [5]) of 31.4 nM, a koff (human CD3ε antigen [5]) of 0.0153 s⁻¹ and a kon (human CD3ε antigen [5]) of 488000 M⁻¹ s⁻¹.

From patent US20240352155A1 (CHIMAGEN BIOSCIENCES, published 2024)
